Data as given in patent US20180155451A1 (published 2018).
Changes are numbered by the printed parent chain. In names and notes the source's numbering stands.

T1: FcgRIIa R extracellular domain with C-terminal His tag (human, UniProt P12318 34-217)
T1 construct: extracellular domain; also called FcγRIIa R; FcγRIIa type R; not shown: His tag attached to the C terminus
T1 sequence (looked up): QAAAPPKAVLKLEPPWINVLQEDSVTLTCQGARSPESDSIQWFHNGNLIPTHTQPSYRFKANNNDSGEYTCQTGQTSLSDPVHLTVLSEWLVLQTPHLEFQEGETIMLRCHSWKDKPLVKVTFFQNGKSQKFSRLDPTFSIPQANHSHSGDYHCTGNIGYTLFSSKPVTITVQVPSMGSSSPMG

T2: FcgRIIa H extracellular domain with C-terminal His tag (human, UniProt P12318 34-217)
T2 construct: extracellular domain; also called FcγRIIa H; FcγRIIa type H; not shown: His tag attached to the C terminus
T2 sequence (looked up): T1 sequence (looked up) with R134H

T3: FcgRIIb extracellular domain with C-terminal His tag (human, UniProt P31994 43-217)
T3 construct: extracellular domain; also called FcγRIIb; not shown: His tag attached to the C terminus
T3 sequence (looked up): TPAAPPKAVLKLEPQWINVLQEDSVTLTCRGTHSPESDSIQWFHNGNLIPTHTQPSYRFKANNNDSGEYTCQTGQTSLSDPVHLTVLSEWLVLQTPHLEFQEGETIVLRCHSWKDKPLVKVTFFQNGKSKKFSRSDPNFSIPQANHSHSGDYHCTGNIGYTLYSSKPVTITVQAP

T4: FcγRIIa R (extracellular domain, C-terminal His tag) (human, UniProt P12318 34-217)
T4 construct: extracellular domain; Soluble receptor used as analyte in Biacore; also called FcgRIIa R; 2aR; not shown: His tag attached to the C terminus
T4 sequence (looked up): T1 sequence (looked up)

T5: FcγRIIb (extracellular domain, C-terminal His tag) (human, UniProt P31994 43-217)
T5 construct: extracellular domain; Soluble receptor used as analyte in Biacore; also called FcgRIIb; 2b; not shown: His tag attached to the C terminus
T5 sequence (looked up): T3 sequence (looked up)

B1: H240-G1d/L73-k0 (antibody, human IgG1, kappa)
heavy: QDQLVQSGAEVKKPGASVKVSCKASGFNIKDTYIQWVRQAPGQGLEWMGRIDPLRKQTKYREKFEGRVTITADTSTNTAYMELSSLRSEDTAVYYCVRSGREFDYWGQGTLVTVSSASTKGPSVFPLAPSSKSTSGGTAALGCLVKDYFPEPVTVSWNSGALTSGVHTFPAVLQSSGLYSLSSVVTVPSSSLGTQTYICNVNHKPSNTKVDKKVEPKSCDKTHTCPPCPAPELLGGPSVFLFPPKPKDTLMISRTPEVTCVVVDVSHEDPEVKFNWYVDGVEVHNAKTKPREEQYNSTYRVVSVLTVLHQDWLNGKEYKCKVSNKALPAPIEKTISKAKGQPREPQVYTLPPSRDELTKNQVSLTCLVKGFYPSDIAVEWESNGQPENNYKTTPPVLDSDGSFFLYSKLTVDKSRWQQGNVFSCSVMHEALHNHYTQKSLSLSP
light: DIQMTQSPSSLSASVGDRVTITCRASQDIHKYIAWYQQKPGQAPRLLIQYTSTLQPGVPSRFSGSGSGTDYTFTISSLQPEDIATYYCLQYEQLRTFGGGTKVEIKRTVAAPSVFIFPPSDEQLKSGTASVVCLLNNFYPREAKVQWKVDNALQSGNSQESVTEQDSKDSTYSLSSTLTLSKADYEKHKVYACEVTHQGLSSPVTKSFNRGEC
notes: Anti-epiregulin (EREG) IgG1; also called native IgG1 (anti-epiregulin)
B2: H240-afucosyl_G1d/L73-k0 (antibody, human IgG1, kappa)
heavy: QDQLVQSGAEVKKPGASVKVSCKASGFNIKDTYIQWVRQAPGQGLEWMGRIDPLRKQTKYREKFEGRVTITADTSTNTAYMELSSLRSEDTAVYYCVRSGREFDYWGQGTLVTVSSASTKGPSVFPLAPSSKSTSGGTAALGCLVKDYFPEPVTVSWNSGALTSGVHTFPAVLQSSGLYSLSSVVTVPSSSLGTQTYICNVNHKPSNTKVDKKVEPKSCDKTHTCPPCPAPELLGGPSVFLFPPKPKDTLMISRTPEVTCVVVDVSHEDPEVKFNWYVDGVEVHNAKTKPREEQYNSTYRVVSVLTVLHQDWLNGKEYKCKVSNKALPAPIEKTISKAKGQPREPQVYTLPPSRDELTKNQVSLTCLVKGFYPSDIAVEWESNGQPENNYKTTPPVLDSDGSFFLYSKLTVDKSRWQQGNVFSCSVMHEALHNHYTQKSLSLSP
light: B1 light
modifications: fucose removed from the sugar chain (afucosylated)
notes: also called afucosylated antibody
B3: H240-Kn033/H240-Hl033/L73-k0 (antibody, human IgG1, kappa)
heavy 1: not shown
heavy 2: not shown
light: B1 light
notes: Knobs-into-holes only (control)
B4: H240-Kn032/H240-Hl032/L73-k0 (antibody, human IgG1, kappa)
heavy 1: QDQLVQSGAEVKKPGASVKVSCKASGFNIKDTYIQWVRQAPGQGLEWMGRIDPLRKQTKYREKFEGRVTITADTSTNTAYMELSSLRSEDTAVYYCVRSGREFDYWGQGTLVTVSSASTKGPSVFPLAPSSKSTSGGTAALGCLVKDYFPEPVTVSWNSGALTSGVHTFPAVLQSSGLYSLSSVVTVPSSSLGTQTYICNVNHKPSNTKVDKKVEPKSCDKTHTCPPCPAPELLGGPDVFLFPPKPKDTLMISRTPEVTCVVVDVSHEDPEVKFNWYVDGVEVHNAKTKPREEQYNSTYRVVSVLTVLHQDWLNGKEYKCKVSNKALPLPEEKTISKAKGQPREPQVCTLPPSRDELTKNQVSLWCLVKGFYPSDIAVEWESNGQPENNYKTTPPVLDSDGSFFLYSKLTVDKSRWQQGNVFSCSVMHEALHNHYTQKSLSLSP
heavy 2: B4 heavy 1 with C348Y, D355C, W365S, L367A, Y406V
light: B1 light
notes: S239D/A330L/I332E in both H chains (called homodimerized)
B5: heterodimerized antibody GpH7-A5/GpH7-B3 variant L328_13S/GpL16-k0 (antibody, human IgG1, kappa)
heavy 1: not shown
heavy 2: not shown
light: DIVMTQSPLSLPVTPGEPASISCQASESLVHSNRNTYLHWYLQKPGQSPQLLIYKVSNRFSGVPDRFSGSGSGTDFTLKISRVEAEDVGVYYCSQNTHVPPTFGQGTKVEIERTVAAPSVFIFPPSDEQLKSGTASVVCLLNNFYPREAKVQWKVDNALQSGNSQESVTEQDSKDSTYSLSSTLTLSKADYEKHKVYACEVTHQGLSSPVTKSFNRGEC
notes: Anti-glypican-3 IgG1 with the alteration in only one H chain (the GpH7-B3 chain); also called He Ab
B6: heterodimerized antibody GpH7-A5/GpH7-B3 variant L328_18N/GpL16-k0 (antibody, human IgG1, kappa)
heavy 1: not shown
heavy 2: not shown
light: B5 light
notes: as for B5
B7: heterodimerized antibody GpH7-A5/GpH7-B3 variant I332_11K/GpL16-k0 (antibody, human IgG1, kappa)
heavy 1: not shown
heavy 2: not shown
light: B5 light
notes: as for B5
B8: heterodimerized antibody GpH7-A5/GpH7-B3 variant L328_15Y/GpL16-k0 (antibody, human IgG1, kappa)
heavy 1: not shown
heavy 2: not shown
light: B5 light
notes: as for B5
B9: heterodimerized antibody GpH7-A5/GpH7-B3 variant L328_20W/GpL16-k0 (antibody, human IgG1, kappa)
heavy 1: not shown
heavy 2: not shown
light: B5 light
notes: as for B5

Legend:
[1] = target: T6, FcgRIa extracellular domain with C-terminal His tag (human, UniProt P12314 16-292); experiment: SPR (Biacore), antibody captured on chip, FcγR extracellular domain as analyte, kinetic analysis
T6 construct: extracellular domain; Expressed in FreeStyle293 cells; used as analyte in Biacore; also called FcγRIa; FcγRI; not shown: His tag attached to the C terminus
T6 sequence (P12314 16-292): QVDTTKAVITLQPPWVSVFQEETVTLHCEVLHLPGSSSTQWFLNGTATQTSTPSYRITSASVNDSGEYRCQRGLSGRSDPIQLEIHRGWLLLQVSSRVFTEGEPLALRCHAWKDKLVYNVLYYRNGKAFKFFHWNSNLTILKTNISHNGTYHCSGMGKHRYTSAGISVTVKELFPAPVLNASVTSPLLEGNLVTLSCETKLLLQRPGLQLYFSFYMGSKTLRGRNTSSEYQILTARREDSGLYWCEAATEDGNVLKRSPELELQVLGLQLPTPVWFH
Protocol: (§1) Analysis of interaction between obj ective antibody and the FcγR was carried out using Biacore T100 (GE Healthcare), Biacore T200, Biacore A100, and Biacore 4000. HBS-EP+ (GE Healthcare) was used as the running buffer, and the measurement temperature was set to 25° C. Chips produced by immobilizing the antigen peptide by the amine coupling method to a Series S sensor Chip CM5 (GE Healthcare), chips produced by allowing preliminarily biotinylated antigen peptides to interact with and immobilize onto a Series S Sensor Chip SA (certified) (GE Healthcare), chips produced by immobilizing Protein L (ACTIGEN, BioVision) to Series S Sencor Chip CM5 (GE Healthcare), or chips produced by immobilizing Protein A/G (Thermo Scientific) to Series S Sencor Chip CM5 (GE Healthcare) were used. Antibodies of interest were captured onto these chips, and allowed to interact to each FcγR diluted with running buffer. To regenerate and repeatedly use the chip, the antibodies captured onto the chip were washed off by reacting 10 mM glycine-HCl, pH 1.5.

[2] = target: T1, FcgRIIa R extracellular domain with …; experiment: as above
Protocol: as §1

[3] = target: T2, FcgRIIa H extracellular domain with …; experiment: as above
Protocol: as §1

[4] = target: T3, FcgRIIb extracellular domain with …; experiment: as above
Protocol: as §1

[5] = target: T7, FcgRIIIa F extracellular domain with C-terminal His tag (human, UniProt P08637 17-208); experiment: as above
T7 construct: extracellular domain; also called FcγRIIIa F; FcγRIIIa (F158); not shown: His tag attached to the C terminus
T7 sequence (P08637 17-208): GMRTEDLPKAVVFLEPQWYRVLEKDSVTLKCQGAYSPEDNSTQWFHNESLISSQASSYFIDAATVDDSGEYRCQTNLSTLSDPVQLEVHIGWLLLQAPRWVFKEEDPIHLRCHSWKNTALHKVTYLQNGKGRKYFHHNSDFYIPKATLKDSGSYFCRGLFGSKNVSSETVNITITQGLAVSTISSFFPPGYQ
Protocol: as §1

[6] = target: T8, FcgRIIIa V extracellular domain with C-terminal His tag (human, UniProt P08637 17-208); experiment: as above
T8 construct: extracellular domain; also called FcγRIIIa V; FcγRIIIa (V158); not shown: His tag attached to the C terminus
T8 sequence (P08637 17-208 F176V): as the sequence (P08637 17-208) above, with F160V counted along it
Protocol: as §1

[7] = target: T4, FcγRIIa R (extracellular domain, …); experiment: SPR (Biacore); He/Con for FcγRIIa R divided by He/Con for FcγRIIb
Protocol: (§2) The heterodimerized antibodies He Abs in which one of the H chains was introduced with an alteration were assayed for their binding activities to each activating FcγR and inhibitory FcγR according to the method described in Example 4. […] The activating FcγRs in FIGS. 26, 27, 28, and 29 are FcγRIa, FcγRIIa (R), FcγRIIa (H), and FcγRIIIa, respectively.
(§3) Analysis of interaction between objective antibody and the FcγR was carried out using Biacore T100 (GE Healthcare). HBS-EP+ (GE Healthcare) was used as the running buffer, and the measurement temperature was set to 25° C. Chips produced by immobilizing the antigen peptide by the amine coupling method to a Series S Sencor Chip CM5 (GE Healthcare), or alternatively, chips produced by allowing preliminarily biotinylated antigen peptides to interact with and immobilize onto a Series S Sensor Chip SA (certified) (GE Healthcare) were used. Antibodies of interest were captured onto an antigen peptide-immobilized chip, and allowed to interact to each FcγR diluted with running buffer. To regenerate and repeatedly use the chip, the antibodies captured on the chip were washed off by reacting 10 mM glycine-HCl, pH 1.5.

[8] = target: T4, FcγRIIa R (extracellular domain, …); experiment: SPR (Biacore T100), antibody captured on antigen peptide chip, FcγR as analyte; relative binding amount
Protocol: as §2, §3

[9] = target: T5, FcγRIIb (extracellular domain, …); experiment: as above
Protocol: as §2, §3

Binder | Kd [1] [nM] | Kd [2] [nM] | Kd [3] [nM] | Kd [4] [nM] | Kd [5] [nM] | Kd [6] [nM] | He_2aR/2b (IIaR/IIb) [7] [ratio] | He/Con_2aR (IIaR binding) [8] | He/Con_2b (IIb binding) [9]
B1 | 0.23 | 880 | 660 | 6000 | 1400 | 310 | – | – | –
B2 | 0.43 | 490 | 780 | 2600 | 78 | 6.9 | – | – | –
B3 | 0.25 | 1000 | 930 | 4100 | 2600 | 390 | – | – | –
B4 | 0.073 | 340 | 690 | 620 | 9.1 | 3.1 | – | – | –
B5 | – | – | – | – | – | – | 0.78 | 117 % of control (GpH7-A5/GpH7-B3/GpL16-k0 = 100) | 149 % of control (GpH7-A5/GpH7-B3/GpL16-k0 = 100)
B6 | – | – | – | – | – | – | 0.73 | 59.4 % of control (GpH7-A5/GpH7-B3/GpL16-k0 = 100) | 80.8 % of control (GpH7-A5/GpH7-B3/GpL16-k0 = 100)
B7 | – | – | – | – | – | – | 0.61 | 43.1 % of control (GpH7-A5/GpH7-B3/GpL16-k0 = 100) | 70.9 % of control (GpH7-A5/GpH7-B3/GpL16-k0 = 100)
B8 | – | – | – | – | – | – | 0.7 | 136 % of control (GpH7-A5/GpH7-B3/GpL16-k0 = 100) | 193 % of control (GpH7-A5/GpH7-B3/GpL16-k0 = 100)
B9 | – | – | – | – | – | – | 0.66 | 155 % of control (GpH7-A5/GpH7-B3/GpL16-k0 = 100) | 235 % of control (GpH7-A5/GpH7-B3/GpL16-k0 = 100)
